Publication PMC11853025, “Determining Ligand Binding and Specificity Within the β2-Integrin Family with a Novel Assay Platform” (Biomolecules, 2025)
Numbering of substitutions follows the chain as printed.

T1: ICAM-2 (recombinant, Sino Biological 10332-H03H) (UniProt P13598 25-223)
T1 construct: ICAM-2, bought recombinant protein; also called intercellular adhesion molecule 2; source: bought: Sino Biological
T1 sequence (looked up): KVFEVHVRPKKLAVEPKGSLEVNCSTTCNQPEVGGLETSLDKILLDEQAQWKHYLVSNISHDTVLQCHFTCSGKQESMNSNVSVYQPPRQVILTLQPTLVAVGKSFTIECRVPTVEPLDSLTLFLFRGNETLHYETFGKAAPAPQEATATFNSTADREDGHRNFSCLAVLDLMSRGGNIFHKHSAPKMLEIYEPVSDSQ

B1: CD11d αDI domain, high-affinity (HA) variant p.I332G (domain or fragment, UniProt Q13349 145-334, looked up)
chain: PHQEMDIVFLIDGSGSIDQNDFNQMKGFVQAVMGQFEGTDTLFALMQYSNLLKIHFTFTQFRTSPSQQSLVDPIVQLKGLTFTATGILTVVTQLFHHKNGARKSAKKILIVITDGQKYKDPLEYSDVIPQAEKAGIIRYAIGVGHAFQGPTARQELNTISSAPPQDHVFKVDNFAALGSIQKQLQEKGYA
notes: integrin alpha-D (CD11d) αI domain, P145-A334; plasmid bought from ATG:Biosynthetics; also called αDI HA; HA αDI
B2: CR4 αXI domain, wild type (WT) (domain or fragment, UniProt P20702 148-336, looked up)
chain: QEQDIVFLIDGSGSISSRNFATMMNFVRAVISQFQRPSTQFSLMQFSNKFQTHFTFEEFRRSSNPLSLLASVHQLQGFTYTATAIQNVVHRLFHASYGARRDAAKILIVITDGKKEGDSLDYKDVIPMADAAGIIRYAIGVGLAFQNRNSWKELNDIASKPSQEHIFKVEDFDALKDIQNQLKEKIFAI
notes: integrin alpha-X (CD11c) αI domain, Q148-I336; also called αXI WT; WT αXI
B3: CR4 αXI domain, high-affinity (HA) variant p.I333G (domain or fragment, UniProt P20702 148-336, looked up)
chain: B2 chain with I186G
notes: integrin alpha-X (CD11c) αI domain, Q148-I336; Addgene numbers tied to αLI and αXI by the order of the sentence; also called αXI HA; HA αXI
B4: CR3 αMI domain, high-affinity (HA) variant p.I332G (domain or fragment)
chain: QEDSDIAFLIDGSGSIIPHDFRRMKEFVSTVMEQLKKSKTLFSLMQYSEEFRIHFTFKEFQNNPNPRSLVKPITQLLGRTHTATGIRKVVRELFNITNGARKNAFKILVVITDGEKFGDPLGYEDVIPEADREGVIRYVIGVGDAFRSEKSRQELNTIASKPPRDHVFQVNNFEALKTIQNQLREKGFA
notes: integrin alpha-M (CD11b) αI domain, Q146-A334; beads captured by the His-tag; also called αMI HA; HA αMI

Legend:
Settings in all cases: both partners purified
[1] = target: T2, ICAM-1 (recombinant, Sino Biological 10346-H03H) (UniProt P05362 28-480); assay: SPR; ICAM-1, ICAM-2, ICAM-3 amine-coupled to a CM5 chip; αI domains injected; 25 °C; HBST with 1 mM MgCl2
T2 construct: ICAM-1, bought recombinant protein; also called intercellular adhesion molecule 1; source: bought: Sino Biological
T2 sequence (P05362 28-480): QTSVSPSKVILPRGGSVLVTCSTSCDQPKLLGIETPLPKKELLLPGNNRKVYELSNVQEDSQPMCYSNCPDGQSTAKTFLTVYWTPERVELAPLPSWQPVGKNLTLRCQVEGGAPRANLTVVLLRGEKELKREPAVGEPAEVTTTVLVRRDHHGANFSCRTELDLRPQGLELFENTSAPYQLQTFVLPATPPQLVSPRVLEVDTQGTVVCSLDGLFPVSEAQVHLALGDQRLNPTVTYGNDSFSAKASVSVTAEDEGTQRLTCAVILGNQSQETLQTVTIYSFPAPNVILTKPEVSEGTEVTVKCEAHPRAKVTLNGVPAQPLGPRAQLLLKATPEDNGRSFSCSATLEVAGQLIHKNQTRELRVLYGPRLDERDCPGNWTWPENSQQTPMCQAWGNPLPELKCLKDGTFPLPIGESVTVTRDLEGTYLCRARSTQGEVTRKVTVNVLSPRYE

[2] = target: T3, C3b (UniProt P01024 23-667; P01024 749-1663); assay: SPR; C3b deposited on a CM5 chip (amine-coupled seed, then convertase-mediated deposition to about 5000 RU), iC3b and C3dg made from it on the chip; αI domains injected as dilution series, 120 s; Biacore T200, 25 °C; HBST (10 mM HEPES, 150 mM NaCl, 0.005% Tween-20, pH 7.4) with 1 mM MgCl2; Langmuir 1:1 fit, KD calculated
T3 construct: A seed of about 100 RU C3b was amine-coupled; further C3b was deposited via its thioester moiety to about 5000 RU; also called C3b fragment; C3-derived opsonin; source: bought: Complement Technology (C3b, C3); deposited on the SPR chip from C3 by the FB/FD convertase

[3] = target: T4, C3dg (UniProt P01024 955-1303); assay: as above
T4 construct: Held on the chip through the thioester-mediated deposit of its parent C3b; also called C3dg fragment; source: made on the SPR chip by co-injecting CR1 and factor I

[4] = target: T1, ICAM-2 (recombinant, Sino Biological …); assay: SPR; ICAM-1, ICAM-2, ICAM-3 amine-coupled to a CM5 chip; αI domains injected; 25 °C; HBST with 1 mM MgCl2

| Binder | binding result [1] | Kd [2] [µM] | Kd [3] [µM] | binding result [4] |
| --- | --- | --- | --- | --- |
| B1 | binds | – | – | – |
| B2 | – | 55.5 | 30.4 | – |
| B3 | – | 2.2 | 3.8 | – |
| B4 | – | 11.6 | 1.4 | binds |
